Measurements as given in US20260183373.

Tests used:
Aβ(1-40) = Aβ(1-40) (UniProt P05067)
Aβ(1-42) = Aβ(1-42) (UniProt P05067)

Sequence of MMP2 (P08253 110-660): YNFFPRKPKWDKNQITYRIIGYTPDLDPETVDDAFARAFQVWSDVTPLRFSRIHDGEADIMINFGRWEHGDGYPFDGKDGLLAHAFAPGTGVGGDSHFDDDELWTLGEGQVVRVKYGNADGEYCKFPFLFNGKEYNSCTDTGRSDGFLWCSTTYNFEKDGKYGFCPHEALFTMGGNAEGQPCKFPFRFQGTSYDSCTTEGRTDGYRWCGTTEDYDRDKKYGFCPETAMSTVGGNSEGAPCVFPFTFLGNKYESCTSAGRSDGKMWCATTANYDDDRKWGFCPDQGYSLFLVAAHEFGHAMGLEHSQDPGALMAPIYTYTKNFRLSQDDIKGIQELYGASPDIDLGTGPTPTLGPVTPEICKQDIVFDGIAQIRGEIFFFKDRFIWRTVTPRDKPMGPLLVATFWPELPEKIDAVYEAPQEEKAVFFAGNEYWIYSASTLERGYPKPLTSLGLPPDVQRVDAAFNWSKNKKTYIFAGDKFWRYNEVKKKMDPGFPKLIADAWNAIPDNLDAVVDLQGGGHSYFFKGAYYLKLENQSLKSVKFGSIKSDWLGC

Substance: ECE1
- stated: cleaves; Aβ cleavage assay, intact Aβ by ELISA (% untreated) (Aβ(1-40)): near 100 % up to about 10 nM, falls to about 30 % at the highest concentration (about 1000 nM), no lower plateau
- stated: cleaves; Aβ cleavage assay, intact Aβ by ELISA (% untreated) (Aβ(1-42)): near 100 % up to about 10 nM, falls only to about 60 % at the highest concentration (about 1000 nM), no lower plateau

Substance: MMP2
- stated: cleaves; Aβ cleavage assay, intact Aβ by ELISA (% untreated) (Aβ(1-40)): about 105 % up to about 30 nM, about 45 % near 100 nM, about 0 % from about 300 nM
- stated: cleaves; Aβ cleavage assay, intact Aβ by ELISA (% untreated) (Aβ(1-42)): drifts from about 90 % to about 65 % between 0.01 and 30 nM (no flat upper plateau), about 40 % near 100 nM, about 0 % from about 300 nM

Substance: MMP9
- stated: cleaves; Aβ cleavage assay, intact Aβ by ELISA (% untreated) (Aβ(1-40)): about 100 % up to about 30 nM, about 80 % near 100 nM, about 40 % near 300 nM, about 10 % at the highest concentration (about 1000 nM), no lower plateau
- stated: cleaves; Aβ cleavage assay, intact Aβ by ELISA (% untreated) (Aβ(1-42)): about 80 % up to about 30 nM, about 60 % near 100 nM, about 35 % near 300 nM, below 10 % at the highest concentration (about 1000 nM), no lower plateau

Substance: MTSP1
- stated: cleaves; Aβ cleavage assay, intact Aβ by ELISA (% untreated) (Aβ(1-40)): about 100 % up to about 30 nM, about 70 % near 100 nM, about 35 % near 300 nM, about 13 % at the highest concentration (about 1000 nM), no lower plateau
- stated: cleaves; Aβ cleavage assay, intact Aβ by ELISA (% untreated) (Aβ(1-42)): about 100 % up to about 10 nM, about 70 % near 100 nM, about 47 % near 300 nM, about 20 % at the highest concentration (about 1000 nM), no lower plateau

Substance: NEP2
- stated: cleaves; Aβ cleavage assay, intact Aβ by ELISA (% untreated) (Aβ(1-40)): stays near 100 % up to about 10 nM, about 60 % near 30 nM, about 25 % near 100 nM, about 0 % from about 300 nM
- stated: cleaves; Aβ cleavage assay, intact Aβ by ELISA (% untreated) (Aβ(1-42)): stays near 90 % up to about 10 nM, about 60 % near 30 nM, about 35 % near 100 nM, about 0 % at the highest concentration (about 1000 nM)
